US20240254224A1 (UCB, published 2024)

Experiments:
Assay in all cases: SPR (Biacore T200), TREM1 ECD over antibody captured by anti-human Fc
[1] = biological target: T1, marmoset TREM1 ECD (in house, His tagged) (marmoset, UniProt A0A8I3WDM5 21-206)
T1 construct: extracellular domain
T1 sequence: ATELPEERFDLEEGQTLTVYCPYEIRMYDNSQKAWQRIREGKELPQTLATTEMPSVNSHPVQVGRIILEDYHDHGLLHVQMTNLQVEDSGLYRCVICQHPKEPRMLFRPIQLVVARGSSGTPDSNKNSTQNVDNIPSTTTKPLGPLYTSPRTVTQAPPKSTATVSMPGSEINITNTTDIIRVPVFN
Experimental: (§1) The species tested were human, cynomolgus, rhesus, marmoset, rat, mouse, dog and pig.
(§2) TREM1 ECD analyte (in house, His tagged) was injected at 3-fold serial dilutions in HBS-EP+ running buffer (GE Healthcare), top concentrations are shown in Table 15, and three-fold serial dilutions were performed to a bottom concentration of 2 nM. Buffer blank injections were included to subtract instrument noise and drift.

[2] = biological target: T2, mouse TREM1 ECD (in house, His tagged) (mouse, UniProt Q9JKE2 21-202)
T2 construct: extracellular domain
T2 sequence (looked up): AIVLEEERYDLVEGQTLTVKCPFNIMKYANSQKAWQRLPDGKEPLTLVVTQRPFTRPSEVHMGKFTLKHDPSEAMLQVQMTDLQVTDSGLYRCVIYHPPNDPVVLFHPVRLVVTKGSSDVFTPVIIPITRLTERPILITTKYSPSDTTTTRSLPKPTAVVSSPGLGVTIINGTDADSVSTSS
Experimental: as §1, §2

[3] = biological target: T3, pig TREM1 ECD (in house, His tagged) (pig, UniProt Q6TYI6 21-210)
T3 construct: extracellular domain
T3 sequence (looked up): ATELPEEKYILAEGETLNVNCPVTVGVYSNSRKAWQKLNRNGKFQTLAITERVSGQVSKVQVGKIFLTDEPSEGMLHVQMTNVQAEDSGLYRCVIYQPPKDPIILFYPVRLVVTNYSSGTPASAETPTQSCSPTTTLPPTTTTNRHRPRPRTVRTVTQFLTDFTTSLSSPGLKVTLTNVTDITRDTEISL
Experimental: as §1, §2

binding result [1]: no binding (tested: 510 nM) | binding result [2]: no binding (tested: 520 nM) | binding result [3]: no binding (tested: 490 nM)
B1: 12172 gL2gH11 hIgG4P (antibody)
heavy: not shown
light: DIQLTQSPSFLSASVGDRVTITCQASQNIGSDLAWYQQKPGKAPKLLIYKAATLASGVPSRFSGSGSGTEFTLTISSLQPEDFATYYCQQYYYGSAGADTDTFGGGTKVEIKRTVAAPSVFIFPPSDEQLKSGTASVVCLLNNFYPREAKVQWKVDNALQSGNSQESVTEQDSKDSTYSLSSTLTLSKADYEKHKVYACEVTHQGLSSPVTKSFNRGEC
notes: Humanised IgG4P, human kappa; also called 12172gL2gH11 IgG4P
